Experimental data from US20240270874A1 (JIANGSU HENGRUI PHARMACEUTICALS, published 2024).

T1: human KLB on CHOK1-hKLB cells (human, UniProt Q86Z14 1-1044)
T1 construct: whole, on cells; also called human KLB antigen; β-Klotho
T1 sequence (looked up): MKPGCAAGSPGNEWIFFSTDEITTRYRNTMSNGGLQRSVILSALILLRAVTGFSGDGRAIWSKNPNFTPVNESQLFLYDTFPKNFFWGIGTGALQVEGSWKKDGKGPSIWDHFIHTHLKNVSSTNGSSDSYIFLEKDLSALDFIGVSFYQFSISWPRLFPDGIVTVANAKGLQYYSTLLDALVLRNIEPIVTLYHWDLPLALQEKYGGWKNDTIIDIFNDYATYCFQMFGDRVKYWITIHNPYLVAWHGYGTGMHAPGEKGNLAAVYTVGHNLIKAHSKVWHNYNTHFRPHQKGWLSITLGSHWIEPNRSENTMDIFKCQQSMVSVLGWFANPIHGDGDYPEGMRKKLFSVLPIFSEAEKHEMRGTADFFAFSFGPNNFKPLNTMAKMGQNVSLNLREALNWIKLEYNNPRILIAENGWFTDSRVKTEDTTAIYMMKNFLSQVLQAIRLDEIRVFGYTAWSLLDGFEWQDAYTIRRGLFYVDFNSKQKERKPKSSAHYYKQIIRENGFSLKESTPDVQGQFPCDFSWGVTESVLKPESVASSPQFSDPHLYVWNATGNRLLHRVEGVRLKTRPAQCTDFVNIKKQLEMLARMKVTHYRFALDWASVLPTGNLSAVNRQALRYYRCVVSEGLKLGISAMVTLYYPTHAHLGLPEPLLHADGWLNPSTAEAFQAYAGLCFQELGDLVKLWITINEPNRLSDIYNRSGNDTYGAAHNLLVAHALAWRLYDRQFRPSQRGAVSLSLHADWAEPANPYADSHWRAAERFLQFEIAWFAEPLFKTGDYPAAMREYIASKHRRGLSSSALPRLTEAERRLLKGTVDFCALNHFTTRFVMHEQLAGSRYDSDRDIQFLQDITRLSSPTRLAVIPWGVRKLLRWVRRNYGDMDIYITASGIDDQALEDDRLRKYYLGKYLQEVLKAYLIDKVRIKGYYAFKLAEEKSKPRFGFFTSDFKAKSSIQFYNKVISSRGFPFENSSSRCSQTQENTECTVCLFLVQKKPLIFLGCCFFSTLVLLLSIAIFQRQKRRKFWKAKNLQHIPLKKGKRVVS

B1: hAb-23 (antibody, human IgG1, kappa, L234A L235A, V domains shown)
VH: QVQLVQSGAEVKKPGSSVKVSCKASGGTFSSYAISWVRQAPGQGLEWMGGIIPIFGTANYAQKFQGRVTITADESTSTAYMELSSLRSEDTAVYYCARELVSYYYGMDVWGQGTMVTVSS
VL: not shown
notes: from a human natural phage library; human IgG1 (L234A, L235A) / kappa; also called fully human antibody hAb-23
B2: hAb18-8 (antibody, human IgG1, kappa, L234A L235A, V domains shown)
VH: EVQLVQSGAEVKKPGASVKVSCKASGYTFTDYAMHWVRQAPGQRLEWMGVISTYSGTTNYNQNFKGRVTITVDKSASTAYMELSSLRSEDTAVYYCARSGPLDYWGQGTTVTVSS
VL: ENVLTQSPDFQSVTPKEKVTITCRATSSVSSSYLHWYQQKPDQSPKLWIYSTSQLASGVPSRFSGSGSGTDYTLTINSLEAEDAATYYCQQYSGYPLTFGQGTKLEIKR
notes: human IgG1 (L234A, L235A) / kappa
B3: hAb99-13 (antibody, human IgG1, kappa, L234A L235A, V domains shown)
VH: EVQLVQSGAEVKKPGASVKVSCKASGYTFTNYGINWVRQAPGQRLEWMGYIYIGNVDIEYNAKFKGRVTITSDTSASTAYMELSSLRSEDTAVYYCARGRGLGHFDVWGQGTTVTVSS
VL: DIQMTQSPSSLSASVGDRVTITCRASKSISKFLAWFQQKPGKTNKLLIYSGSTLQSGVPSRFSGSGSGTDFTLTISSLQPEDFATYYCQQHNEYPWTFGGGTKVEIKR
notes: as for B2

Experiments:
[1] = molecular target: human KLB & human FGFR4 on L6 cells (human, UniProt Q86Z14 1-1044; P22455 22-802); experiment: cell-based or functional assay
Sequence of human KLB & human FGFR4 on L6 cells (P22455 22-802, chain 2 of 2, one chain of several): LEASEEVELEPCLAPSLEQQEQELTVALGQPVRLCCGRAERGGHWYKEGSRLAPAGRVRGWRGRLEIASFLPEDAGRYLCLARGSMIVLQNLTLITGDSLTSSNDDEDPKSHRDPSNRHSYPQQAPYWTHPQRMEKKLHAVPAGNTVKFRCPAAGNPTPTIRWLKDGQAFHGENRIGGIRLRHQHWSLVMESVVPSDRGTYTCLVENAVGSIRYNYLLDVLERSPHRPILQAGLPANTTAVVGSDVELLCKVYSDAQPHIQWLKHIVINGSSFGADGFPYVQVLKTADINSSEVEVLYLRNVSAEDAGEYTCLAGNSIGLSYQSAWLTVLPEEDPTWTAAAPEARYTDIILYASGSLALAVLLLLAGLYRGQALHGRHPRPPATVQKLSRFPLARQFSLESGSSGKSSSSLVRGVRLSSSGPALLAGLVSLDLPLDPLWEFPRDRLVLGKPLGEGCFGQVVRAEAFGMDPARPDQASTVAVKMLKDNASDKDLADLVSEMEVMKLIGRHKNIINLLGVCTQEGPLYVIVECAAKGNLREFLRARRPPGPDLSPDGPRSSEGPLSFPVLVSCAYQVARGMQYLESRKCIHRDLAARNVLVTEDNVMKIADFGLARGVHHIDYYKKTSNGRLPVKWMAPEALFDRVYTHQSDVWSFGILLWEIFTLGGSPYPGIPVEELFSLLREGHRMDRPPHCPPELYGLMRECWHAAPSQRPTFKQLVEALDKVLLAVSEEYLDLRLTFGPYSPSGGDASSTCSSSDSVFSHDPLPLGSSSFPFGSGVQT

[2] = molecular target: T2, human KLB&FGFR1c complex on cells (human, UniProt Q86Z14 1-1044; P11362 22-822); experiment: cell-based or functional assay
T2 sequence (P11362 22-822, one chain of several): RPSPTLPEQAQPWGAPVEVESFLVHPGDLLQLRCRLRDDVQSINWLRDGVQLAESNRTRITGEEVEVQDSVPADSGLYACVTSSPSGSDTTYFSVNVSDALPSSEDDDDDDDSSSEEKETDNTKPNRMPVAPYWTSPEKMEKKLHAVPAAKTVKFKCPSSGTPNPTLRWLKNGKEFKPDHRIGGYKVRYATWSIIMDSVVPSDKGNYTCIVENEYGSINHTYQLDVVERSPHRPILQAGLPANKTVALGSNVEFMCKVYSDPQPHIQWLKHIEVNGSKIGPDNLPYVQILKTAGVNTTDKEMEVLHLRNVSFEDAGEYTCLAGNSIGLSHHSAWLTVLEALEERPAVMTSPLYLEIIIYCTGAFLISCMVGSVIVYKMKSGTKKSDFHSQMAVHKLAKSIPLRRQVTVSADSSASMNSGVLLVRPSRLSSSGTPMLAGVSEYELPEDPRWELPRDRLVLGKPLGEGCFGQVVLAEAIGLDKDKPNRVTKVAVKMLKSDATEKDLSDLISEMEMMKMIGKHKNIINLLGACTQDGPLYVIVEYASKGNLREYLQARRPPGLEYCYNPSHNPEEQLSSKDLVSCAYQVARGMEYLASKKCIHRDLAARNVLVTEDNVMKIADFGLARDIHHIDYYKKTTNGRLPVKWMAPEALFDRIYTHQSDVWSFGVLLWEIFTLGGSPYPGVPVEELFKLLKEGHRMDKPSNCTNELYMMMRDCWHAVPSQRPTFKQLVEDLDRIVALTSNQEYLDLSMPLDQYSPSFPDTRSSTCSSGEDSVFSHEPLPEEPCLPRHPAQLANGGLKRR

[3] = molecular target: T1, human KLB on CHOK1-hKLB cells; experiment: flow cytometry on CHOK1-hKLB cells
Text: The above heavy chain variable regions were fused to the heavy chain constant region (set forth in SEQ ID NO: 22) and the light chain variable regions were fused to the light chain constant region (set forth in SEQ ID NO: 23) to construct anti-KLB antibodies, and the binding activity of the obtained antibodies for CHOK1-hKLB was detected (see Test Example 2 of the present disclosure for the experimental method).
The binding ability of the antibodies for CHOK1 cell strains CHOK1-hKLB and CHOK1-cynoKLB overexpressing human KLB and monkey KLB (see Example 1 for specific preparation procedure), respectively, was detected by flow cytometry. The specific procedure was as follows: the above cells were cultured in 10% FBS-containing IMDM medium and incubated in an incubator at 37° C. and 5% CO₂ for 2 days. The cells were then added to a cell plate at 1×10⁵ cells per well, centrifuged at 300 g for 5 min, and then washed once with 1% BSA. The antibody diluted in gradient was added to the cell plate at 100 μL per well, and the mixture was incubated at 4° C. for 1 h and washed once with 1% BSA. The diluted (1:400) APC-goat anti-human IgG Fc fluorescent secondary antibody was added at 100 μL per well, and the resulting mixture was incubated at 4° C. for 1 h. The plate was washed three times with 1% BSA, PBS was added at 100 μL per well, and the plate was read.

[4] = molecular target: T2, human KLB&FGFR1c complex on cells; experiment: cell-based or functional assay; remark: listed apart in the source

| Binder | Activation fold, pERK/total ERK in L6-hKLB&hFGFR4 cells [1] | Activation fold, SRE-Luc2P reporter in HEK293T-hKLB&hFGFR1c cells [2] | EC50 (nM), SRE-Luc2P reporter in HEK293T-hKLB&hFGFR1c cells [2] | EC50 [3] | Activation fold, GAL4-Elk1 luciferase reporter in CHOK1-hKLB&hFGFR1c cells [4] | EC50 (nM), GAL4-Elk1 luciferase reporter in CHOK1-hKLB&hFGFR1c cells [4] |
| --- | --- | --- | --- | --- | --- | --- |
| B1 | 0.91 fold |  |  |  |  |  |
| B2 | 0.98 fold | 2.29 fold | 5.35 nM | 2.5 nM |  |  |
| B3 | 1.54 fold | 3.57 fold | 2.62 nM | 0.32 nM | 14.3 fold | 0.19 nM |
